Test results published in US20140023585A1, “177 LUTETIUM-LABELED BOMBESIN ANALOGS FOR RADIOTHERAPY” (UNIVERSITATSSPITAL BASEL, priority 2010, published 2014).

Experiment: in vivo
Details: male, NMRI nu/nu, mouse, iv, total radioactivity; for tissue uptake at 1 h: 1.0 h p.a.; for tissue uptake at 4 h: 4.0 h p.a.; for tissue uptake at 24 h: 24.0 h p.a.; for tissue uptake at 48 h: 48.0 h p.a.; for tissue uptake at 72 h: 72.0 h p.a.
Protocol: Biodistribution was investigated in NMRI nude mice bearing subcutaneous PC-3 tumors in the right hind limb at different time-points. Body weight of the male mice was approx. 30 g, 3 animals were investigated per time-point. After injecting an intravenous dose into the tail vein, mice were sacrificed at indicated time points and dissected organs were analyzed by radioactive counting. An administration dose of 100 μL was applied per animal with a mean activity of 86 kBq.
At indicated time points urine and feces were quantitatively collected. At the same time points, animals were sacrificed and exsanguinations under isoflurane anesthesia and the following organs and tissues were removed for measurement of [^177Lu] using the gamma-counter: spleen, liver, gallbladder, kidneys, lung, femur, heart, brain, fat, thyroid, muscle, skin, blood, tail, stomach (without content), prostate, intestine (with content), pancreas, adrenals, and the remaining body (designated as carcass).
Whole organs and tissues or aliquots were weighted and measured in a gamma-counter for radioactivity. In order to get the amount of total radioactivity administered in each animal (=100%) 3 aliquots (100 μL each) of the injected solution were always measured in parallel. The results of the biodistribution and excretion are reported as percent of injected dose per gram of tissue (% ID/g) and percent of injected dose per organ (% ID), respectively. All data are given as mean value±standard deviation, which were calculated by using all animals per time and sample.

[1] = pancreas, 86 kBq per animal, % ID/g Pancreas
[2] = stomach (without content), 86 kBq per animal, % ID/g Stomach
[3] = stomach (without content), 86 kBq
[4] = tail, 86 kBq per animal, % ID/g Tail

## CC(C)C[C@H](NC(=O)C[C@H](O)[C@H](CC(C)C)NC(=O)[C@H](Cc1c[nH]cn1)NC(=O)CNC(=O)[C@@H](NC(=O)[C@H](C)NC(=O)[C@H](Cc1c[nH]c2ccccc12)NC(=O)[C@H](CCC(N)=O)NC(=O)[C@@H](Cc1ccccc1)NC(=O)CN1CCC(NC(=O)CN2CCN(CC(=O)O)CCN(CC(=O)O)CCN(CC(=O)O)CC2)CC1)C(C)C)C(N)=O [compound 2, [^177Lu]-DOTA-4-amino-1-carboxymethylpiperidine-D-Phe-Gln-Trp-Ala-Val-Gly-His-Sta-Leu-NH2, metal not drawn]
lung, 86 kBq per animal
  tissue uptake dose at 24 h: 0.005 %ID
  tissue uptake dose at 48 h: 0.013 %ID
lung, 86 kBq, % ID/g Lung
  tissue uptake at 1 h: 0.364 %ID/g
  tissue uptake at 4 h: 0.083 %ID/g
  tissue uptake at 24 h: 0.019 %ID/g
  tissue uptake at 48 h: 0.048 %ID/g
muscle, 86 kBq per animal
  tissue uptake dose at 1 h: 0.014 %ID
  tissue uptake dose at 4 h: 0.003 %ID
muscle, 86 kBq, % ID/g Muscle
  tissue uptake at 1 h: 0.072 %ID/g
  tissue uptake at 4 h: 0.02 %ID/g
Organs (sum), 86 kBq
  tissue uptake dose at 1 h: 20.1 %ID
  tissue uptake dose at 4 h: 9.64 %ID
  tissue uptake dose at 24 h: 3.64 %ID
  tissue uptake dose at 48 h: 2.09 %ID
  tissue uptake dose at 72 h: 1.37 %ID
[1]
  tissue uptake at 1 h: 18.7 %ID/g
  tissue uptake at 4 h: 5.17 %ID/g
  tissue uptake at 24 h: 0.579 %ID/g
  tissue uptake at 48 h: 0.288 %ID/g
  tissue uptake at 72 h: 0.206 %ID/g
pancreas, 86 kBq
  tissue uptake dose at 1 h: 8.03 %ID
  tissue uptake dose at 4 h: 1.74 %ID
  tissue uptake dose at 24 h: 0.196 %ID
  tissue uptake dose at 48 h: 0.076 %ID
  tissue uptake dose at 72 h: 0.046 %ID
prostate, 86 kBq per animal, % ID/g Prostate
  tissue uptake at 1 h: 0.289 %ID/g
prostate, 86 kBq
  tissue uptake dose at 1 h: 0.003 %ID
skin, 86 kBq per animal
  tissue uptake dose at 1 h: 1.81 %ID
  tissue uptake dose at 4 h: 0.515 %ID
  tissue uptake dose at 24 h: 0.162 %ID
  tissue uptake dose at 48 h: 0.246 %ID
  tissue uptake dose at 72 h: 0.152 %ID
skin, 86 kBq per animal, % ID/g Skin
  tissue uptake at 72 h: 0.04 %ID/g
skin, 86 kBq, % ID/g Skin
  tissue uptake at 1 h: 0.409 %ID/g
  tissue uptake at 4 h: 0.145 %ID/g
  tissue uptake at 24 h: 0.055 %ID/g
  tissue uptake at 48 h: 0.074 %ID/g
spleen, 86 kBq per animal
  tissue uptake dose at 1 h: 0.034 %ID
  tissue uptake dose at 4 h: 0.015 %ID
  tissue uptake dose at 24 h: 0.005 %ID
  tissue uptake dose at 48 h: 0.003 %ID
spleen, 86 kBq, % ID/g Spleen
  tissue uptake at 1 h: 0.284 %ID/g
  tissue uptake at 4 h: 0.152 %ID/g
  tissue uptake at 24 h: 0.06 %ID/g
  tissue uptake at 48 h: 0.056 %ID/g
[2]
  tissue uptake at 1 h: 2.56 %ID/g
  tissue uptake at 4 h: 1.36 %ID/g
  tissue uptake at 24 h: 0.081 %ID/g
  tissue uptake at 48 h: 0.042 %ID/g
  tissue uptake at 72 h: 0.02 %ID/g
[3]
  tissue uptake dose at 1 h: 0.614 %ID
  tissue uptake dose at 4 h: 0.321 %ID
  tissue uptake dose at 24 h: 0.018 %ID
  tissue uptake dose at 48 h: 0.01 %ID
  tissue uptake dose at 72 h: 0.005 %ID
tail, 86 kBq per animal
  tissue uptake dose at 1 h: 1.84 %ID
  tissue uptake dose at 4 h: 0.694 %ID
  tissue uptake dose at 24 h: 0.337 %ID
  tissue uptake dose at 48 h: 0.15 %ID
[4]
  tissue uptake at 1 h: 2.23 %ID/g
  tissue uptake at 4 h: 0.953 %ID/g
  tissue uptake at 24 h: 0.436 %ID/g
  tissue uptake at 48 h: 0.194 %ID/g
  tissue uptake at 72 h: 0.313 %ID/g
tail, 86 kBq
  tissue uptake dose at 72 h: 0.263 %ID
thyroid, 86 kBq per animal
  tissue uptake dose at 1 h: 0.006 %ID
thyroid, 86 kBq, % ID/g Thyroid
  tissue uptake at 1 h: 0.185 %ID/g
tumor, 86 kBq per animal
  tissue uptake dose at 1 h: 1.12 %ID
  tissue uptake dose at 4 h: 3.07 %ID
  tissue uptake dose at 24 h: 2.19 %ID
  tissue uptake dose at 48 h: 1.05 %ID
  tissue uptake dose at 72 h: 0.55 %ID
tumor, 86 kBq, % ID/g Tumor
  tissue uptake at 1 h: 5.6 %ID/g
  tissue uptake at 4 h: 8.1 %ID/g
  tissue uptake at 24 h: 6.06 %ID/g
  tissue uptake at 48 h: 3.58 %ID/g
  tissue uptake at 72 h: 2.49 %ID/g
urine, 86 kBq
  dose excreted at 1 h: 71.8%
  dose excreted at 4 h: 63.1%
  dose excreted at 24 h: 76.3%
  dose excreted at 48 h: 74%
  dose excreted at 72 h: 63.7%
